Experimental findings from article PMC5686067 are described below.

Experiment [1] has as its target sNlpI (soluble NlpI without its lipoprotein signal peptide) (E. coli) (UniProt P0AFB1). Kind of experiment: AUC; sedimentation velocity, absorbance optics, 20 mM Tris-HCl pH 8.0, 100 mM NaCl, 2 mM DTT, 20 °C, c(s) model in Sedfit.
Experiment [2] shares this target. Kind of experiment: SEC-MALS; ENrich SEC 650 column, 20 mM Tris-HCl pH 7.5, 200 mM NaCl, 2 mM DTT, 0.02% NaN3, 240-360 µg protein injected. For orientation: In gel filtration, larger molecules generally elute earlier.
Experiment [3] concerns the target sMepS-6×His-C (soluble MepS without its lipoprotein signal peptide, C-terminal His-tag) (E. coli) (UniProt P0AFV4). Kind of experiment: ITC; iTC200, 20 °C, 20 mM HEPES pH 7.5, 300 mM NaCl, 2 mM 2-mercaptoethanol; 23 µM sMepS or Prc in the cell, 230 µM sNlpI (alone or with equimolar Prc) in the syringe; one binding site model.
Experiment [4] addresses Prc (full-length, C-terminal His-tag) (E. coli) (UniProt P23865).

Usually Kd stands for the concentration at which binding is half-saturated. A low value points to a tighter complex.

sNlpI (soluble NlpI without its lipoprotein signal peptide) (E. coli), sequence (P0AFB1 20-294): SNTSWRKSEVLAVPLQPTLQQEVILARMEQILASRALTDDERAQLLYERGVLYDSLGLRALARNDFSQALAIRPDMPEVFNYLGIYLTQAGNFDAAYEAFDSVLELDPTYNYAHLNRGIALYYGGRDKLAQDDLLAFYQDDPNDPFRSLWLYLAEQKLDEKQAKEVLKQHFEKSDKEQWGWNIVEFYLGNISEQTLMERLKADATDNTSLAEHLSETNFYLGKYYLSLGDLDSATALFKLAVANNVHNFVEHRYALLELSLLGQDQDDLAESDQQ
sMepS-6×His-C (soluble MepS without its lipoprotein signal peptide, C-terminal His-tag) (E. coli), sequence (P0AFV4 28-188 limits assumed): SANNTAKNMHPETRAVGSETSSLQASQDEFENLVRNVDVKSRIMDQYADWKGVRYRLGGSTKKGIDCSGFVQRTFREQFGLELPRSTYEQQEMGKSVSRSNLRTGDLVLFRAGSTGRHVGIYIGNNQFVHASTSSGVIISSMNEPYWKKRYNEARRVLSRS
Prc (full-length, C-terminal His-tag) (E. coli), sequence (P23865 23-682 limits assumed): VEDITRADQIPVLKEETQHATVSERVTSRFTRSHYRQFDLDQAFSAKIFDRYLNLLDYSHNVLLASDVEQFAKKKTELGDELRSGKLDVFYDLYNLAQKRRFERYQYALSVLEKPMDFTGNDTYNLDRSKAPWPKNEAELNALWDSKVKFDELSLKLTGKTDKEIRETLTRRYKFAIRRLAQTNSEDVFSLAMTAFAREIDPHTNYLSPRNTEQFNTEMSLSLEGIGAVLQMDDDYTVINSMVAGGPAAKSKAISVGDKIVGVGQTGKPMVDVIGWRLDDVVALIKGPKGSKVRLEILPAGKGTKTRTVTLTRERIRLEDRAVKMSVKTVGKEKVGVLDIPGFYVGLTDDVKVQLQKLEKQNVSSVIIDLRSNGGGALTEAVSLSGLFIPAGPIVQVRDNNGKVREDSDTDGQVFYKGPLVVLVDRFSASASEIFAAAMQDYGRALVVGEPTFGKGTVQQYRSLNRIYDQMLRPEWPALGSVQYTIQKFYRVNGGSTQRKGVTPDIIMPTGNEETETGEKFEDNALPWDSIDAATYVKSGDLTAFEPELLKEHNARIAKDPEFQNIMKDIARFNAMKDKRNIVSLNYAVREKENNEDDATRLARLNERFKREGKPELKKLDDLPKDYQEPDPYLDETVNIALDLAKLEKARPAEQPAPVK

Consider “Prc (full-length, C-terminal His-tag) (from UniProt P23865 23-682) (enzyme)”, for which the stoichiometry N (Prc per sNlpI (printed 2:2)) in experiment [1] and in experiment [2] was 1 each time. For “sNlpI-Prc complex (from UniProt P0AFB1 20-294; P23865 23-682)”, in experiment [3], the Kd was determined as 2090 nM. In other words, the single-digit micromolar range. Turning to “sNlpI-QM (D113A/E117A/D120/E124A quadruple mutant) (from UniProt P0AFB1 20-294) (natural protein)”, the specific degradation activity of Prc against MepS with sNlpI-QM (nmol min^−1 per mg) in experiment [4] was 0.98.
